Measurements: patent publication US20060153851A1
Values joined by “and” are separate entries in the source; they are usually repeats but may differ in a detail not shown here. Equal entries are not always repeated.

Target: each PDZ domain-containing protein (GST-DLG1, GST-NeDLG, and GST-PSD95 fusion proteins of FIG. 9B)
Assay: 30 µM biotinylated peptide on plate-bound GST-PDZ fusions, streptavidin-HRP (FIG. 9B)

OD units at 30 µM peptide: 0.4 OD units and 1 OD units
B1: biotinylated synthetic peptide corresponding to the C-terminal 20 amino acids of CLASP-2 (peptide)
peptide: VLHHHQNPEFYDEIKIELPTQLHEKHHLLLTFFHVSCDNSSKGSTKKRDVVETQVGYSWLPLLKDGRVVTSEQHIPVSANLPSGYLGYQELGMGRHYGPEIKWVDGGKPLLKISTHLVSTVYTQDQHLHNFFQYCQKTESGAQALGNELVKYLKSLHAMEGHVMIAFLPTILNQLFRVLTRATQEEVAVNVTRVIIHVVAQCHEEGLESHLRSYVKYAYKAEPYVASEYKTVHEELTKSMTTILKPSADFLTSNKLLRYSWFFFDVLIKSMAQHLIENSKVKLLRNQRFPASYHHAAETVVNMLMPHITQKFGDNPEASKNANHSLAVFIKRCFTFMDRGFVFKQINNYISCFAPGDPKTLFEYKFEFLRVVCNHEHYIPLNLPMPFGKGRIQRYQDLQLDYSLTDEFCRNHFLVGLLLREVGTALQEFREVRLIAISVLKNLLIKHSFDDRYASRSHQARIATLYLPLFGLLIENVQRINVRDVSPFPVNAGMTVKDESLALPAVNPLVTPQKGSTLDNSLHKDLLGAISGIASPYTTSTPNINSVRNADSRGSLISTDSGNSLPERNSEKSNSLDKHQQSSTLGNSVVRCDKLDQSEIKSLLMCFLYILKSMSDDALFTYWNKASTSELMDFFTISEVCLHQFQYMGKRYIARNQEGLGPIVHDRKSQTLPVSRNRTGMMHARLQQLGSLDNSLTFNHSYGHSDADVLHQSLLEANIATEVCLTALDTLSLFTLAFKNQLLADHGHNPLMKKVFDVYLCFLQKHQSETALKNVFTALRSLIYKFPSTFYEGRADMCAALCYEILKCCNSKLSSIRTEASQLLYFLMRNNFDYTGKKSFVRTHLQVIISVSQLIADVVGIGETRFQQSLSIINNCANSDRLIKHTSFSSDVKDLTKRIRTVLMATAQMKEHENDPEMLVDLQYSLAKSYASTPELRKTWLDSMARIHVKNGDLSEAAMCYVHVTALVAEYLTRKGVFRQGCTAFRVITPNIDEEASMMEDVGMQDVHFNEDVLMELLEQCADGLWKAERYELIADIYKLIIPIYEKRRDFFEDEDGKEYIYKEPKLTPLSEISQRLLKLYSDKFGSENVKMIQDSGKVNPKDLDSKYAYIQVTHVIPFFDEKELQERKTEFERSHNIRRFMFEMPFTQTGKRQGGVEEQCKRRTILTAIHCFPYVKKRIPVMYQHHTDLNPIEVAIDEMSKKVAELRQLCSSAEVDMIKLQLKLQGSVSVQVNAGPLAYARAFLDDTNTKRYPDNKVKLLKEVFRQFVEACGQALAVNERLIKEDQLEYQEEMKANYREMAKELSEIMHEQICPLEEKTSVLPNSLHIFNAISGTPTSTMVHGMTSSSSVV
modifications: biotin at the amino-terminus
